Data as given in the nanobody polyreactivity screen of Harvey et al. (2022).

Experiment: yeast display, Sf9 membrane polyspecificity reagent, FACS + sequencing; frameworks hold sequencing errors
How it was run: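 After 36–48 hours of galactose induction, yeast (Saccharomyces cerevisiae BJ5465) displaying a synthetic nanobody library were stained at 4 °C for 1 hour with 10% biotinylated, detergent-solubilized Sf9 membrane reagent. Streptavidin microbeads enriched the stained cells before FACS sorting into low and high (top ~1%) gates on anti-HA and streptavidin fluorescence. Each clone's polyreactivity label reflects its gate of origin.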

Sequence | polyreactivity (PSR sort gate)
QVQLVESGGGLVQAGGSLRLSCAASGRIFNGYAMGWYRQAPGKERELVARISKRGGRTYYADSVKGRFTISRDNAKNTVYLQMNSLKPEDTAVYYCNAVPRVTRPSAVEEYDYWGQGTQVTVSS | high polyreactivity
QVQLVESGGGLVQAGGSLRLSCAASGRIFNKNAMGWYRQAPGKERELVAAITYSGGSTYYADSVKGRFTISRDNAKNTVYLQMNSLKPEDTAVYYCARDLYYVYSFAPYRYEYWGQGTQVTVSS | low polyreactivity
QVQLVESGGGLVQAGGSLRLSCAASGRIFNLYAMGWYRPAPGKERELVAAISWSGGSTYYADSVKGRFTITRDNAKNTVYLQMNSLKPEDTAVYYCKVVSTYKHTYDFDYWGQGTQVTLSS | high polyreactivity
QVQLVESGGGLVQAGGSLRLSCAASGRIFNMYAMGWYRQAPGKERELVAAISVSGTRTYYADSVKGRFTISRDNAKNTVYLQMNSLKPEDTAVYYCAADSYGGVWSEHMYYWGQGTQVTVSS | low polyreactivity
QVQLVESGGGLVQAGGSLRLSCAASGRIFNPYAMGWYRQAPGKERELVAAISWSGSTTYYADSVKGRFTISRDNAKNTVYLQMNSLKPEDTAVYYCAAEVVFFGWNYDYWGQGTQVTVSS | high polyreactivity
QVQLVESGGGLVQAGGSLRLSCAASGRIFNQSGMGWYRQAPGKERELVAAIRSGDSTNYADSVKGRFTISRDNAKNTVYLQMNSLKPEDTAVYYCAKDSDYPDYVSTKGDYDYWGQGTQVTVSS | low polyreactivity
QVQLVESGGGLVQAGGSLRLSCAASGRIFNQYGMGWYRQAPGKERELVAAIRSGDSTNYADSVKGRFTISRDNAKNTVYLPMNSLKPEDTAVYYCASDRPGDYAGYDYWGQGTQVTVSS | low polyreactivity
QVQLVESGGGLVQAGGSLRLSCAASGRIFNQYGMGWYRQAPGKERELVAAIRSGDSTNYADSVKGRFTISRDNAKNTVYLQMNSLKPEDTAVYYCARDFSPGSSDPKASISFDHWGQGTQVTVSS | low polyreactivity
QVQLVESGGGLVQAGGSLRLSCAASGRIFNQYGMGWYRQAPGKERELVAAIRSGDSTNYADSVKGRFTISRDNAKNTVYLQRNSLKPEDTAVYYSARDRPGDYAGYDYWGQGTQVTVSS | low polyreactivity
QVQLVESGGGLVQAGGSLRLSCAASGRIFNQYGMGWYSQARGKERELVAAIRSGDSTNYADSVKGRFTISRDNAKNTVYLQMNSLKPEDTAVDYCARDRPGDYAGYDYWGQGTQVTVSS | low polyreactivity
QVQLVESGGGLVQAGGSLRLSCAASGRIFNRNAMGWYRQPPGKERELGAAISRSGSRTYYADSVKWRFTISRDNAKNTVYLQMNSLKPEDTAVYYCAVSGYSPYLYRYGYWGQGTQETVSS | high polyreactivity
QVQLVESGGGLVQAGGSLRLSCAASGRIFNRYAMGWYRQAPGKERELVAAINSSGGSTYYADSVKGRFTISRDNAKNTVYLQMNSLKPEDTAVYYCARVSYHYRTYDYWGQGTQVTVSS | high polyreactivity
QVQLVESGGGLVQAGGSLRLSCAASGRIFNRYTMGWYRPAPGKEREFVAAISSRGGSTYYADSVKGRFTISRDNAKNTVDLQMYSLIPEDTAVYYCNKDYYWPLYAPYDSWGQGTRVTVSS | high polyreactivity
QVQLVESGGGLVQAGGSLRLSCAASGRIFNRYVMGWYRQAPGKERELVAAISVRGASTYYADSVKGRFTISRDNAKNTVYLQMNSLKPEDTAVYYCATAGYRLLDYWGEGTQVTVSS | high polyreactivity
QVQLVESGGGLVQAGGSLRLSCAASGRIFNSNAMGWYRQAPGKERELAAAISKRGGSTFYADSVKGRFTISRDNAKNTVYLQMNSLKPEDTAVYYCNARRLSTGFERYDYWGQGTQVTVSS | high polyreactivity
QVQLVESGGGLVQAGGSLRLSCAASGRIFNSYAMGWYRQAPGKERELVAAISWSGSSTYYADSVKGRFTISRDNAKNTVYLQMNSLKPEDTAVYYCAAGTRYFDYWGQGTQVTVSS | high polyreactivity
QVQLVESGGGLVQAGGSLRLSCAASGRIFNSYAMGWYRQAPGKERELVAAITRGGSTNYADSVKGRFTISRDNAKNTVYLHMNSLKPEDTAVYYCAAVTLFHYRYDYWGQGTQVTVSS | low polyreactivity
QVQLVESGGGLVQAGGSLRLSCAASGRIFNTYAMGWYRQAPGKERELVAAITSSGGSTYYADSVKGRFTISRDNEKNTVYLQLNSLKPEDTAVYYCAKPWYVRGGSSKYVYWGQGTQVTVSS | high polyreactivity
QVQLVESGGGLVQAGGSLRLSCAASGRIFNTYAMGWYRQAPGKERELVAVISSRGGSTYYADSVKGRFTISRDNAKNTVYLQMNSLKPEDTAVYYCAARGRGQPFVRYDYWGQGTQVTVSS | high polyreactivity
QVQLVESGGGLVQAGGSLRLSCAASGRIFNWYAMGWYRQAPGKERELVARISSGDITSYADSVKGRFTISRDNAKNTVYLQMNRLKPEDTAVYYCDARQWFLYDYWGQGTQVTVSS | low polyreactivity
QVQLVESGGGLVQAGGSLRLSCAASGRIFNYYDMGWYRQPPGKERELVAAISWRGTSTRYADSVKGRFTISRDNAKNTVYLQMNSLKPEDTAVYYCADDDYARRFSFKYDYWGQGTQVTVSS | high polyreactivity
QVQLVESGGGLVQAGGSLRLSCAASGRIFNYYTMGWYRQAPGKEREFVAAISRSGGSTFYADSVKGRFTISRDNAKNTVYLQMNSLKPEDTAVYYCAARSYSRPDGGYVQLDYWGQGTQVTVSS | high polyreactivity

Sequence | polyreactivity (PSR sort gate)
QVQLVESGGGLVQAGGSLRLSCAASGRIFPANAMGWYRQAPGKERELVAAIDYDGGSTYYADSVKGRFTISRDNAKNTVYLQMNSLKPEDTAVYYCAADFYDYEGSYYDYYWGQGTQVTVSS | high polyreactivity
QVQLVESGGGLVQAGGSLRLSCAASGRIFPAYAMGWYRQAPGKERELVASIRRGGITYADSVKGRFTISRDNAKNTVYLLMNSLKPEDTAVYYCNAYVNRATAGRYYSWGQGTQVTVSS | low polyreactivity
QVQLVESGGGLVQAGGSLRLSCAASGRIFPAYAMGWYRQAPWKERELVASIRRGGITYADSVKGRFTISRDNAKNTVYLQMNSLKPEDSAVYYCNADYRGWGYHMYYWGQGTQVTVSS | low polyreactivity
QVQLVESGGGLVQAGGSLRLSCAASGRIFPAYTMGWYRQAPGKERELVAAITWSGGSTYYADSVKGRFTISRDNAKNTVYLQMNSLKPEDTAVYYCAADKLYWYYGTEYGYWGQGTQVTVSS | low polyreactivity
QVQLVESGGGLVQAGGSLRLSCAASGRIFPAYVMGWYRQAPGKERELVATIDNGGGTYYADSVKGRFTISRDNAKNTVYLQMNSLKPEDPAVYYCARDRHVRWGLKMDYWGQGTQVTVSS | low polyreactivity
QVQLVESGGGLVQAGGSLRLSCAASGRIFPDYDMGWYRQAPGKERELVAAITQRGGSTYADSVKGRFTISRDNAKNTVYLQMNSLKPEDTSVYYCAREYYEGYEYWGQGTQVTVSS | low polyreactivity
QVQLVESGGGLVQAGGSLRLSCAASGRIFPFYAMGWYRQAPGKERELVAAISSSGGSTYYADSVKGRFTISRDHAKNTVYFQMNSLKPEDTAVYYCAATRNSDGMGYWGQGTQVTVSS | low polyreactivity
QVQLVESGGGLVQAGGSLRLSCAASGRIFPFYVMGWYRQAPGKERELVATINWSGGSTYYADSVKGRFTISRDNAKNTVYLQMNSLKPEDNAVYYCNAAPSDDYDYWGQGTQVTVSS | low polyreactivity
QVQLVESGGGLVQAGGSLRLSCAASGRIFPGNAMGWYRQAPGKERELVADITSGGSTNYADSVKGRFTISRDNAKNTVYLQMNSLKPEDTAVYYCAVRQIYQTSDHRLQYDYWGQGTQVTVSS | low polyreactivity
QVQLVESGGGLVQAGGSLRLSCAASGRIFPGYAMGWYRQAPGKERELVAAISERGGSTYYADSVKGRFTISRDNAKNTVYLQMNSLKPEDTAVYYCAAIWRGGYNYWGQGTQVTVSS | low polyreactivity
QVQLVESGGGLVQAGGSLRLSCAASGRIFPGYAMGWYRQAPGKERELVAAISGSGVRTYYADSVKGRFTISRDNAKNTVYLQMNSLKPEDTAVYYCAADSKIRTKLDYWGQGTQVTVSS | low polyreactivity
QVQLVESGGGLVQAGGSLRLSCAASGRIFPGYTMGWYRQAPGKEREFVAAISYSGGSTYADSVKGRFTISRDNAKNTVYLQMNSLKPEDTAVNYCAVVLQHWLDMYYWGQGTQVTVSS | low polyreactivity
QVQLVESGGGLVQAGGSLRLSCAASGRIFPGYTMGWYRQAPGKERELVAGISRSGGRTYYADSVKGRFTISRDNAKNTVYLQMNSLKPEDTAVYYCAADGYPGRRYTGMDYWGQGTQVTVSS | high polyreactivity
QVQLVESGGGLVQAGGSLRLSCAASGRIFPHNAMGWYRQAPGNERELVAAISSHGGSTYYAVSVKGRFTISRDNAKNTVYLQMNSLKPEDTAVYYCAKYRYFAGDGDYWGQGTQVTVSS | low polyreactivity
QVQLVESGGGLVQAGGSLRLSCAASGRIFPHYAIGWYRQAPGKERELVAAISTSGGSTYYADSVKGRFTISRDIAKNTVYLQLNCLKPEDTEVYYCAARGYQYGFYYLVIYDYWGQGTQVTVSS | low polyreactivity
QVQLVESGGGLVQAGGSLRLSCAASGRIFPKNTMGWYRQAPGKERELVAAINWNGGRTYYADSVKGRFTISRDNAKNTVYLQMNSLKPEDTAVYYCAKDGYWDFDYWGQGTQVTVSS | low polyreactivity
QVQLVESGGGLVQAGGSLRLSCAASGRIFPLYAMGWYRQAPGKERELVADISVTGTSTYYADSVKGRFTISRDNAKNTVYLQMNSLKPEDTAVYYCAADLWAYGPLWRWSRADYDYWGQGTQVTVSS | low polyreactivity
QVQLVESGGGLVQAGGSLRLSCAASGRIFPNYVMGWYRQAPGKERELVAAISRRGGRTYYADSVKGRFTISRDNAKNTVYLQMNSLKPEDTAVYYCARVPTRAEDVAGWTGMDYWGQGTQVTVSS | high polyreactivity
QVQLVESGGGLVQAGGSLRLSCAASGRIFPQNAMGWYRQAPGKERELVAVITGNGSTYYADSVKGRFTISRDNAKNTVYLQMNSLKPEDTAVYYCAARVSWPYHRGARDYWGQGTQVTVSS | low polyreactivity
QVQLVESGGGLVQAGGSLRLSCAASGRIFPRYAMGWYRQAPGKERELVARITRRGGITYYADSVKGRFTISRDNAKNTVYLQMNSLTPEDTAVYYCNVDYYRGGDFSYGYDYWGQGTQVTVSS | high polyreactivity
QVQLVESGGGLVQAGGSLRLSCAASGRIFPSNVMGWYRQAPGKERELVASISARGGSTYYADSVKGRFTISRDNAKNTGYLQMNSLKPEDTAVYYCHKRRSNGYSQHKLDYWGQGTQVTVSS | low polyreactivity
